The text below walks through data of patent US20230295289A1 (INTERVET, published 2023).

The term EC50 denotes the concentration at which the effect is half-maximal. Low readings indicate a more potent agent, high ones a less potent agent.

Test [1] concerns the target canine IL-31RA ECD-10His (canine). The test can be described thus: ELISA: IL-31RA ECD coated at 10 ug/mL, biotinylated IL-31 titrated 3-fold from 10 ug/mL, HRP-streptavidin. For orientation: In an ELISA, binding on a coated surface is turned into a signal by an enzyme label.
Test [2] has as its target T1, cIL-22-His (canine IL-22 with a His Tag) (canine).
T1 construct: also called cILHIS
T1 chain: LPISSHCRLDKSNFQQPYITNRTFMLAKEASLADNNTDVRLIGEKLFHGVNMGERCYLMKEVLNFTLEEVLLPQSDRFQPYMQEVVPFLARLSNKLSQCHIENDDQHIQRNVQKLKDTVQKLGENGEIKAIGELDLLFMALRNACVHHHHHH
Kind of test: ELISA: cIL-22-His coated, Fc fusion titrated from 10 ug/mL, anti-dog IgG (Fc)-HRP.

canine IL-31RA ECD-10His (canine), sequence (chain, as listed by the source limits assumed): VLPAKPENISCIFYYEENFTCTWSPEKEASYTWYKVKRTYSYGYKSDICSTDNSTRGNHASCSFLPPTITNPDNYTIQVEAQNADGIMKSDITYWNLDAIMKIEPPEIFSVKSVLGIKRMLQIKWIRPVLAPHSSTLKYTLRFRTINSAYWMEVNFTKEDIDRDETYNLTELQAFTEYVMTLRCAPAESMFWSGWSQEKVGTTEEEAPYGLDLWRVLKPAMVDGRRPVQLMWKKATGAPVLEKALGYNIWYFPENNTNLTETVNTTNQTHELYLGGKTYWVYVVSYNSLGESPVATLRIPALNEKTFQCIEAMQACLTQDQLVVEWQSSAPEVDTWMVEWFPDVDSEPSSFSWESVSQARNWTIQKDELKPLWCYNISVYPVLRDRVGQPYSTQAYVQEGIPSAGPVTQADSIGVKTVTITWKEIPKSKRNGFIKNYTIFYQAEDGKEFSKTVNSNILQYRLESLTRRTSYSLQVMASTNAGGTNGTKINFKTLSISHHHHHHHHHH

biotinylated canine IL-31 (ligand) returned an EC50 in test [1] of 0.368 µg/mL.

B1: canine IL-22BP-FcB fusion protein (canine IL-22BP (IL-22RA2) with canine IgG-B Fc) (Fc fusion)
chain: TQSAYESLKPQRVHFQSRNFHNILHWQPGRACTSNGSVYFVQYKMYGQRQWKNKEDCWGILECFCDLTNETSDIQEPYYGRVRTTSAGIHSGWTMTQRFTPWWETKIDPPIINITQVNGSLLVILHAPSLPYRDQKGKNVSIENYYELLYRVFIINNSLEKEQKVYEGAHRIVEIGALAPHTGYCVVAEMYQPMLDRRSPRSEERCMELPGGGGSGGGGSPKRENGRVPRPPDCPKCPAPEMLGGPSVFIFPPKPKDTLLIARTPEVTCVVVALDPEDPEVQISWFVDGKQMQTAKTQPREEQFAGTYRVVSVLPIGHQDWLKGKQFTCKVNNKALPSPIERTISKARGQAHQPSVYVLPPSREELSKNTVSLTCLIKDFFPPDIDVEWQSNGQQEPESKYRTTPPQLDEDGSYFLYSKLSVDKSRWQRGDTFICAVMHEALHNHYTQESLSHSPG
notes: also called cIL-22BP-Fc fusion protein; canine IL-22BP-Fc fusion protein
In the case of B1, the binding result in test [2] is “binds”.

B2: canine IL-22RA1-FcB fusion protein (extracellular domain of canine IL-22RA1 with canine IgG-B Fc) (Fc fusion)
chain: AEDTSDLLQYVKFQSSNFENILTWDSGLESAPDVVYSVEYKTYGKKEWLAKEGCQRITRKSCNLTTETGNHTEHYYARVTAVSAGGRSATKMTDRFSSMQQTTIKPPDVTCIPKVRSIQMIVHPTSTPIHAEDGHRLTLEDIFQDLFYRLELQVNHTYQMHLGGKQRDYEFIGLSPDTEFLGTITISVPNFFKESAPYVCRVKTLPDRTWTGGGGSGGGGSPKRENGRVPRPPDCPKCPAPEMLGGPSVFIFPPKPKDTLLIARTPEVTCVVVALDPEDPEVQISWFVDGKQMQTAKTQPREEQFAGTYRVVSVLPIGHQDWLKGKQFTCKVNNKALPSPIERTISKARGQAHQPSVYVLPPSREELSKNTVSLTCLIKDFFPPDIDVEWQSNGQQEPESKYRTTPPQLDEDGSYFLYSKLSVDKSRWQRGDTFICAVMHEALHNHYTQESLSHSPG
notes: also called cIL-22RA1-Fc fusion protein; canine IL-22RA1-Fc fusion protein
With B2, in test [2], the binding result was “binds”.
